{"source": "paper PMC3934309", "target": "DsbC-MPK4 fusion (construct pT7-DsbC-MPK4) (E. coli | Leishmania major) (UniProt P0AEG6)", "test": "SEC; analytical size exclusion chromatography of the IMAC purified fraction of the uncleaved DsbC-MPK4 fusion; peak at 8.4 ml; apparent molecular weight"}
{"substance": "DsbC-MPK4 fusion (construct pT7-DsbC-MPK4) (from UniProt P0AEG6 21-236; Q4QD66 1-363)", "values": [{"measurement": "stoichiometry N", "result": 10}]}
